Assay results: patent US20140271701A1

Target: serum antibodies (IgG) of Sardinian T1D patients, Example 1 (n=34; Ab+ sera) (human)
Assay: competition ELISA on MAP3865c125-133-coated plates, sera pre-adsorbed with saturating peptide

Binder: MIIVSSCAV [ZnT8178-186 peptide (…)]
- percent inhibition: 57 to 89%
